# Measurements: patent publication US7026148
# Target: bovine calmodulin (Sigma), P62157
protein,measurement,value
FLAG-tagged wild type DRP-1 (DAP-kinase-related protein 1) (protein) MEPFKQQKVEDFYDIGEELGSGQFAIVKKCREKSTGLEYAAKFIKKRQSRASRRGVSREEIEREVSILRQVLHHNVITLHDVYENRTDVVHILELVSGGELFDFLAQKESLSEEEATSFIKQILDGVNYLHTKKIAHFDLKPENIMLLDKNIPIPHIKLIDFGLAHEIEDGVEFKNIFGTPEFVAPEIVNYEPLGLEADMWSIGVITYILLSGASPFLGDTKQETLANITSVSYDFDEEFFSHTSELAKDFIRKLLVKETRKRLTIQEALRHPWITPVDNQQAMVRRESVVNLENFRKQYVRRRWKLSFSIVSLCNHLTRSLMKKVHLRPDEDLRNCESDTEEDIARRKALHPRRRSSTS,amount of phosphorylated MLC in the in vitro kinase assay,The addition of Ca2+/calmodulin to the reaction mixture increased the amount of phosphorylated MLC
